{"source": "patent US20240207405A1", "about": "“IL2 TETHERED TO ITS RECEPTOR IL2RBETA AND PORE-FORMING PROTEINS AS A PLATFORM TO ENHANCE IMMUNE CELL ACTIVITY” (The General Hospital Corporation, priority 2021, published 2024)", "key": {"NK92^CIRB21-icasp9 cells": {"tested_on": "NK92^CIRB21-icasp9 cells", "assay": "Killing of icasp9-expressing NK92 cells by dimerizer drug AP1093", "format": "cell-based, human", "protocol": "(§1) L-Holin killing assays—Cells selected cell for L-Holin were tested in a 24 well plate using 32,000 cells per well. 24 hours later doxycycline was added at 1 μg/ml for 4-5 days. Cells selected for icasp9 were tested in a 24 well plate using 32,000 cells per well. 24 hours later dimerizer drug AP1093 was added at 2 or 10 nM for 4-5 days. Surviving cells were quantified using crustal violet assay as described in (Jounaidi et al, Cancer Research 2017).\nNext, we examined whether high doses of AP1093 could completely kill NK92^CIRB21−icasp9 cells."}, "NK92^CIRB cells [1]": {"tested_on": "NK92^CIRB cells", "assay": "Growth of NK92^CIRB cells in the presence of lactate dehydrogenase inhibitor R-GNE140 (cell count)", "format": "cell-based, human", "conditions": "total cell count, FIG. 11, read-out: IC50 of R-GNE140 for inhibiting growth of NK92^CIRB cells", "protocol": "(§2) The ability of NK92^CIRB and NK92^CIRB21 cells to grow in the presence of the lactate dehydrogenase inhibitor R-GNE140 was tested. Cells were incubated with increasing concentrations of R-GNE140 and total number of cells were counted."}, "NK92^CIRB21 cells [2]": {"tested_on": "NK92^CIRB21 cells", "assay": "Growth of NK92^CIRB21 cells in the presence of lactate dehydrogenase inhibitor R-GNE140 (cell count)", "format": "cell-based, human", "conditions": "total cell count, FIG. 11, read-out: IC50 of R-GNE140 for inhibiting growth of NK92^CIRB21 cells", "protocol": "as §2"}, "[3]": {"conditions": "cited from earlier work"}, "PC-3 cells": {"tested_on": "PC-3 cells", "format": "cell-based, human", "source_text": "Interleukins IL4, IL7, IL9, IL15 and IL21 belong to the same family as IL2, and use the same common IL2Rg. They all have their own private receptors, except for IL2 and IL15, which use IL2Rβ in addition to their own alpha receptors. […] Thus the entire cytoplasmic domain of IL21R was cloned then added Head-to-Tail to the C-terminal of IL2Rβ in the chimera CIRB. […] As shown herein, it was possible to emulate the activation signals from multiple cytokines that activate NK cells via different receptors by using only one ligand and a hybrid receptor."}, "glioblastoma GL261 cells": {"tested_on": "glioblastoma GL261 cells", "assay": "L-Holin killing assay in GL261 clones (doxycycline induction, crystal violet)", "format": "cell-based, mouse", "protocol": "L-Holin GL261 and icasp9 GL261 clones were selected as single cells by extreme dilution in 96 well plates. Clones were grown and evaluated for their response to dox (L-Holin) or AP1093 (icasp9).\nas §1\nMouse glioblastoma cell line GL261 was infected by a retrovirus expressing L-Holin. Clones were selected, L-Holin expression was induced with doxycycline, and cell viability was determined. Four clones were tested: 2 clones with high expression levels of L-Holin (Clone 1, Clone 5) and 2 clones with low expression levels of L-Holin (Clone 6, Clone 9).\nWe compared the ability of L-Holin to trigger cell death to that of icasp9 in GL261 cells. GL261 cells were infected by a retrovirus expressing L-Holin or a retrovirus expressing icasp9. Clones were selected, L-Holin expression was induced with doxycycline, and cell viability was determined. […]"}, "NK92^CIRB21 cells [4]": {"tested_on": "NK92^CIRB21 cells", "assay": "L-Holin killing of NK92^CIRB21 cells (doxycycline induction, cell count)", "format": "cell-based, human", "conditions": "NK92^CIRB21 cells expressing L-Holin, total cell count, FIG. 5B / FIG. 12", "protocol": "NK92^CIRB21 pool selection—NK92^CIRB21 cells expressing L-Holin were selected with puromycin and NK92^CIRB21 cells expressing icasp9 and GFP were sorted by flow cytometry for GFP.\nas §1\nMouse glioblastoma cell line GL261 was infected by a retrovirus expressing L-Holin. Clones were selected, L-Holin expression was induced with doxycycline, and cell viability was determined. […]\nExpression of L-Holin in NK92^CIRB21+Holin cells was induced with doxycycline. Total number of cells were counted after doxycycline treatment. […] After 13 days of growth in the absence of doxycycline, total number of cells were counted. Untreated cells were counted as a control.\nThe ability of L-holin to trigger death of NK92^CIRB cells and NK92^CIRB21 cells was tested. […] Total number of cells were counted after 13 days of growth in the absence of doxycycline. Untreated cells were counted as a control. […]"}, "NK92^CIRB cells [5]": {"tested_on": "NK92^CIRB cells", "assay": "L-holin killing of NK92^CIRB cells (doxycycline induction, cell count)", "format": "cell-based, human", "conditions": "total cell count, FIG. 12", "protocol": "The ability of L-holin to trigger death of NK92^CIRB cells and NK92^CIRB21 cells was tested. L-bolin expression was induced in NK92^CIRB cells and NK92^CIRB21 cells with doxycycline. Cells were washed to remove doxycycline and then cells were cultured for 13 days. Total number of cells were counted after 13 days of growth in the absence of doxycycline. Untreated cells were counted as a control. […] This sensitivity is consistent with the reliance of NK92^CIRB21 cells on mitochondria, which are lysed by L-holin during cell killing."}}, "data": [{"molecule": "CC[C@H](C(=O)N1CCCC[C@H]1C(=O)O[C@H](CCc1ccc(OC)c(OC)c1)c1cccc(OCC(=O)NCCNC(=O)COc2cccc([C@@H](CCc3ccc(OC)c(OC)c3)OC(=O)[C@@H]3CCCCN3C(=O)[C@@H](CC)c3cc(OC)c(OC)c(OC)c3)c2)c1)c1cc(OC)c(OC)c(OC)c1", "note": "[AP1093]", "values": [{"measurement": "viability of NK92^CIRB21-icasp9 cells in the presence of AP1093", "setting": "NK92^CIRB21-icasp9 cells; 10 nM AP1093, FIG. 9A", "result": "remained viable"}, {"measurement": "viability of NK92 cells expressing GFP and icasp9 in AP1093", "setting": "NK92^CIRB21-icasp9 cells; 10 nM AP1093, after 5 days, GFP detection by immunofluorescence, FIG. 9B", "result": "viable in 10 nM of AP1093 even after 5 days"}]}, {"molecule": "O=C1N[C@](c2ccc(N3CCOCC3)cc2)(c2ccsc2)CC(O)=C1Sc1ccccc1Cl", "note": "[R-GNE140]", "values": [{"measurement": "IC50", "setting": "NK92^CIRB cells [1]", "result": 4.7, "unit": "µM"}, {"measurement": "IC50", "setting": "NK92^CIRB21 cells [2]", "result": 10.6, "unit": "µM"}]}, {"molecule": "IL2: immunostimulatory cytokine", "values": [{"measurement": "half-life of IL2 in vivo", "setting": "[3]", "result": "less than 10 min"}]}, {"molecule": "IL21: soluble interleukin of the IL2 family added to NK92^CIRB cells", "values": [{"measurement": "effect of soluble interleukin on cytotoxicity of NK92^CIRB against PC-3 cells", "setting": "PC-3 cells", "result": "dramatically enhance cytotoxicity"}]}, {"molecule": "L-Holin: pore-forming holin protein from bacteriophage, SEQ ID NO: 1, expressed under a tetracycline regulated promoter (protein, Enterobacteriaceae) MPEKHDLLAAILAAKEQGIGAILAFAMAYLRGRYNGGAFTKTVIDATMCAIIAWFIRDLLDFAGLSSNLAYITSVFIGYIGTDSIGSLIKRFAAKKAGVEDGRNQ", "values": [{"measurement": "triggering of cell death compared with icasp9 expressed at low levels", "setting": "glioblastoma GL261 cells; GL261 cells, icasp9 Clone 2, 2 nM or 10 nM AP1903, FIGS. 7A-7B", "result": "more effective at triggering cell death than icasp9 expressed at low levels"}, {"measurement": "cell death as a result of L-Holin expression", "setting": "glioblastoma GL261 cells; GL261 clones with high (1, 5) and low (6, 9) L-Holin expression, doxycycline induced, FIG. 5A", "result": "majority, if not all, of GL261 cells died"}, {"measurement": "detectable cells after L-Holin induction and 13 days of growth in the absence of doxycycline", "setting": "NK92^CIRB21 cells [4]", "result": "remained undetectable"}, {"measurement": "detectable cells after L-Holin induction and 13 days of growth in the absence of doxycycline", "setting": "NK92^CIRB21 cells [4]; listed as L-holin", "result": "undetectable"}, {"measurement": "detectable cells after L-Holin induction and 13 days of growth in the absence of doxycycline", "setting": "NK92^CIRB cells [5]", "result": "some NK92^CIRB cells survived and were detectable"}]}]}
